Test results: PMC10224958, “Cryo-EM structure of the Saccharomyces cerevisiae Rpd3L histone deacetylase complex” (Nature Communications, 2023)

B1: Dep1 (natural protein, S. cerevisiae, UniProt P31385 1-405, looked up)
chain: MSQQTPQESEQTTAKEQDLDQESVLSNIDFNTDLNHNLNLSEYCISSDAGTEKMDSDEEKSLANLPELKYAPKLSSLVKQETLTESLKRPHEDEKEAIDEAKKMKVPGENEDESKEEEKSQELEEAIDSKEKSTDARDEQGDEGDNEEENNEEDNENENEHTAPPALVMPSPIEMEEQRMTALKEITDIEYKFAQLRQKLYDNQLVRLQTELQMCLEGSHPELQVYYSKIAAIRDYKLHRAYQRQKYELSCINTETIATRTFIHQDFHKKVTDLRARLLNRTTQTWYDINKERRDMDIVIPDVNYHVPIKLDNKTLSCITGYASAAQLCYPGEPVAEDLACESIEYRYRANPVDKLEVIVDRMRLNNEISDLEGLRKYFHSFPGAPELNPLRDSEINDDFHQWAQ
notes: Dep1, subunit of the S. cerevisiae Rpd3L complex; endogenous subunit
B2: Sds3 (natural protein, S. cerevisiae, UniProt P40505 1-327, looked up)
chain: MAIQKVSNKDLSRKDKRRFNIESKVNKIYQNFYSERDNQYKDRLTALQTDLTSLHQGDNGQYARQVRDLEEERDLELVRLRLFEEYRVSRSGIEFQEDIEKAKAEHEKLIKLCKERLYSSIEQKIKKLQEERLLMDVANVHSYAMNYSRPQYQKNTRSHTVSGWDSSSNEYGRDTANESATDTGAGNDRRTLRRRNASKDTRGNNNNQDESDFQTGNGSGSNGHGSRQGSQFPHFNNLTYKSGMNSDSDFLQGINEGTDLYAFLFGEKNPKDNANGNEKKKNRGAQRYSTKTAPPLQSLKPDEVTEDISLIRELTGQPPAPFRLRSD
notes: Sds3, subunit of the S. cerevisiae Rpd3L complex; endogenous subunit
B6: Rpd3 (enzyme, S. cerevisiae, UniProt P32561 1-433, looked up)
chain: MVYEATPFDPITVKPSDKRRVAYFYDADVGNYAYGAGHPMKPHRIRMAHSLIMNYGLYKKMEIYRAKPATKQEMCQFHTDEYIDFLSRVTPDNLEMFKRESVKFNVGDDCPVFDGLYEYCSISGGGSMEGAARLNRGKCDVAVNYAGGLHHAKKSEASGFCYLNDIVLGIIELLRYHPRVLYIDIDVHHGDGVEEAFYTTDRVMTCSFHKYGEFFPGTGELRDIGVGAGKNYAVNVPLRDGIDDATYRSVFEPVIKKIMEWYQPSAVVLQCGGDSLSGDRLGCFNLSMEGHANCVNYVKSFGIPMMVVGGGGYTMRNVARTWCFETGLLNNVVLDKDLPYNEYYEYYGPDYKLSVRPSNMFNVNTPEYLDKVMTNIFANLENTKYAPSVQLNHTPRDAEDLGDVEEDSAEAKDTKGGSQYARDLHVEHDNEFY
notes: Rpd3, histone deacetylase, the catalytic subunit of the S. cerevisiae Rpd3L complex; endogenous subunit; Present in two copies in the Rpd3L complex, one in each lobe; also called Rpd3-I; Rpd3-II

Assays:
[1] = biological target: T1, Sin3 (S. cerevisiae, UniProt P22579 1-1536); assay: cryo-EM structure; Rpd3L complex purified by TAP, crosslinked on ice with 1 mM BS3 for 15 min, graphene oxide coated grid; map at 3.5 Å, lobes I and II focus refined to 3.4 Å; conditions: both partners purified
T1 construct: Sin3, principal scaffolding subunit of the S. cerevisiae Rpd3L complex; endogenous subunit; Present in two copies in the Rpd3L complex, one in each lobe; also called Sin3-I; Sin3-II

[2] = biological target: B6; assay: as above; conditions: both partners purified
[3] = biological target: B1; assay: as above; conditions: both partners purified
[4] = biological target: T2, co-expressed complex of MBP-tagged human BRMS1 (residues 51-179) and His6-tagged mouse SDS3 (residues 43-234) (human | mouse, UniProt Q9HCU9 51-179; Q8BR65 43-234); assay: SEC; Ni-NTA purified proteins on a Superdex 75 GL column in 25 mM MOPS pH 7.5, 150 mM NaCl, 1 mM TCEP; co-elution; conditions: both partners purified
T2 construct: BRMS1, human, residues 51-179; SDS3, mouse, residues 43-234; The two chains were co-expressed and then combined with the separately expressed ARID4A R2 domain; also called SDS3, BRMS1; source: E. coli, co-expressed, purified (Ni-NTA, SEC)
T2 sequence (looked up) 1: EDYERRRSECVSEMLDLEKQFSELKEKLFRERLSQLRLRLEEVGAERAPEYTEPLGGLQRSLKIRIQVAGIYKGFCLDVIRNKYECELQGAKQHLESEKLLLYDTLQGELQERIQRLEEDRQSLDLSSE
T2 sequence (looked up) 2: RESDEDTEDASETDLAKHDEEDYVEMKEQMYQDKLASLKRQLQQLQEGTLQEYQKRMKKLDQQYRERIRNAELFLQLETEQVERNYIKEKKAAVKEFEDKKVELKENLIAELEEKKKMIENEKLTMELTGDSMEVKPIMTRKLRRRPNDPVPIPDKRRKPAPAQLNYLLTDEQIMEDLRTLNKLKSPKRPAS

[5] = biological target: B2; assay: cryo-EM structure; Rpd3L complex purified by TAP, crosslinked on ice with 1 mM BS3 for 15 min, graphene oxide coated grid; map at 3.5 Å, lobes I and II focus refined to 3.4 Å; conditions: both partners purified
[6] = biological target: T1, Sin3; assay: affinity purification with mass spectrometry; tandem affinity purification from S. cerevisiae lysate by the TAP tag on Rxt2 (IgG resin, TEV protease, calmodulin resin; washes with 500 to 750 mM KCl); the purified complex analysed by mass spectrometry; conditions: partners not purified
[7] = biological target: B6; assay: as above; conditions: partners not purified

T1 sequence (P22579 whole entry): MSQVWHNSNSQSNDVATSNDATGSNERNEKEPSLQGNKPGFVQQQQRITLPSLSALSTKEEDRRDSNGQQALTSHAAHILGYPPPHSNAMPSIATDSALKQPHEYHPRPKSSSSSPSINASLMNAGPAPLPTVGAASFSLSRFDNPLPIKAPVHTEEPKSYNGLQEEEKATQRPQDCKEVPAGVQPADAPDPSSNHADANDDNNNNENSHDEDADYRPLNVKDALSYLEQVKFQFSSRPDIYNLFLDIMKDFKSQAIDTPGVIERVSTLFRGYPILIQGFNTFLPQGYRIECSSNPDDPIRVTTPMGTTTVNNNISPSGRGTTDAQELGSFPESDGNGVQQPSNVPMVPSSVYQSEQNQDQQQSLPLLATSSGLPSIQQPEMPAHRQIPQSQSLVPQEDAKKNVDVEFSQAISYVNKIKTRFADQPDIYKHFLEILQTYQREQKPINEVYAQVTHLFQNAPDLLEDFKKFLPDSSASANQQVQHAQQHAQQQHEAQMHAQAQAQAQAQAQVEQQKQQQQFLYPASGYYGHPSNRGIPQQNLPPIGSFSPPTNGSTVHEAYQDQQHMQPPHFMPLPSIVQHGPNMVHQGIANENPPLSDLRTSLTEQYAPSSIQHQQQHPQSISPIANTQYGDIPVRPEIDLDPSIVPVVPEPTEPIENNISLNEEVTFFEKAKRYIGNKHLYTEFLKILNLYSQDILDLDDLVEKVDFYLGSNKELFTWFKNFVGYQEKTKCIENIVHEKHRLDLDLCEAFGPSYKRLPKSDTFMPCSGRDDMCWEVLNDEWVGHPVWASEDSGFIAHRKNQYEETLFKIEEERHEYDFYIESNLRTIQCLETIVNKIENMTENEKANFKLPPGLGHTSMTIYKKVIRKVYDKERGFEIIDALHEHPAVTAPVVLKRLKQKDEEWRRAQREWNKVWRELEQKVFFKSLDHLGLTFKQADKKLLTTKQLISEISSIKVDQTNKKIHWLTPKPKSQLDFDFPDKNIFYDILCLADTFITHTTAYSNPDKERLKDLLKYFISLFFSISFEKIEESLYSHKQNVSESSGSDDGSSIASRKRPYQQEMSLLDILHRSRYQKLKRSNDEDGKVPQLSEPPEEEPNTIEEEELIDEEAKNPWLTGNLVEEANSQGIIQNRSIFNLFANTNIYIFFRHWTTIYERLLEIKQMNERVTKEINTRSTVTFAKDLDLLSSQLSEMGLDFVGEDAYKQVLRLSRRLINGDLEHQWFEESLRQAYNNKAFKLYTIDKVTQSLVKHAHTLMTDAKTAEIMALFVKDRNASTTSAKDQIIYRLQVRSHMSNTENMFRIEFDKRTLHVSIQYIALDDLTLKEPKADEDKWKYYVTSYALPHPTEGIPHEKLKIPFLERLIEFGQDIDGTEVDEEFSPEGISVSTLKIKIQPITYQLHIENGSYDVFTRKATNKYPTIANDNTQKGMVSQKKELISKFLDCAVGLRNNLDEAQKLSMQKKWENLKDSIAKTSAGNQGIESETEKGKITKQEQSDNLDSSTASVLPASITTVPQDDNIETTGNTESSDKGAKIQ

B1
binding result [1]: binds | binding result [2]: binds

B2
binding result [1]: binds

B3: Pho23 (natural protein, S. cerevisiae, UniProt P50947 1-330, looked up)
chain: MSSPANLFPGLNDITDVLEEFPLATSRYLTLLHEIDAKCVHSMPNLNERIDKFLKKDFNKDHQTQVRLLNNINKIYEELMPSLEEKMHVSSIMLDNLDRLTSRLELAYEVAIKNTEIPRGLRLGVDNHPAMHLHHELMEKIESKSNSKSSQALKSESRREAMAANRRQGEHYSASTHQQDDSKNDANYGGSRHESQDHTGNNTNSRKRANAANTNNADPETKKRKRRVATTAVSPSTISTATAVNNGRIGTSTASRGVSSVGNSNNSRISRPKTNDYGEPLYCYCNQVAYGEMVGCDGADCELEWFHLPCIGLETLPKGKWYCDDCKKKL
notes: Pho23, subunit of the S. cerevisiae Rpd3L complex; endogenous subunit
binding result [2]: binds | binding result [3]: binds

B4: His6-tagged human ARID4A R2 domain (residues 1164-1230) (domain or fragment, UniProt P29374 1164-1230, looked up)
chain: SPRTYKWSFQLNELDNMNSTERISFLQEKLQEIRKYYMSLKSEVATIDRRRKRLKKKDREVSHAGAS
notes: ARID4A, human, R2 domain, residues 1164-1230; Construct in the pMCSG7 vector; source: E. coli, expressed separately, purified (Ni-NTA, SEC)
binding result [4]: binds

B5: Rxt3 (natural protein, S. cerevisiae, UniProt Q07458 1-294, looked up)
chain: MSVSEQDPNRAYRETQSQIYKLQETLLNSARTKNKQEEGQESNTHSFPEQYMHYQNGRNSAYDLPNVSSQSVLAFTEKHYPNKLKNLGTLYYNRFKEGSFDEDSTSYSDRHSFPYNLYDNTLPPPFLPAIGIQNINNIATLKITYEDIQASFNNIESPRKRNNEIWGCDIYSDDSDPILVLRHCGFKIGAPSGGSFHKLRRTPVNVTNQDNVTGNLPLLEGTPFDLEVELLFLPTLQKYPSVKRFDITSREWGSEATVIHDGLSYGIYSIVIKQRLDRDKPHEPNGYIKNLKWT
notes: Rxt3, subunit of the S. cerevisiae Rpd3L complex; endogenous subunit
binding result [1]: binds

B6
binding result [1]: binds

B7: Sap30 (natural protein, S. cerevisiae, UniProt P38429 1-201, looked up)
chain: MARPVNTNAETESRGRPTQGGGYASNNNGSCNNNNGSNNNNNNNNNNNNNSNNSNNNNGPTSSGRTNGKQRLTAAQQQYIKNLIETHITDNHPDLRPKSHPMDFEEYTDAFLRRYKDHFQLDVPDNLTLQGYLLGSKLGAKTYSYKRNTQGQHDKRIHKRDLANVVRRHFDEHSIKETDCIPQFIYKVKNQKKKFKMEFRG
notes: Sap30, subunit of the S. cerevisiae Rpd3L complex; endogenous subunit
binding result [1]: binds | binding result [5]: binds

B8: Rxt2 with a TAP tag at the C-terminus (natural protein, S. cerevisiae)
chain: MTIRSSMKNNAELESKSVLANESNIISTFTRRIIKEKSGNYQVLKRSLDGKLIYPEATGISSNRGNKLLQRSEVVTRRDLNNSKPMIEQTVFYNGSEHRLLQTNIVTDSRRKRIKFTPDINVEPVLVGDENDIDGSEKEDENITDEYYGEEDDDDLSKLVNVKEILTPILSLGDIINHKTISRTFSSPILKNLALQIILMIEKEQMSVVRYSQFLEVFLGDHPEPIYESNLNLPSYNHNLTLPEDRGASDEDDINNKNNINEVNSNSLSTEAGHINNGMEEFGEEDPFFALPRLEQSNALLSLLPSSSGSASISTLTAAEQQQLNEEIESARQLSQIALQRNKEFIRNLQKIRKSVIKANRIRGRILNWSREYLGISDDDITIPVALRVVKRGLISATTNKTTNFEEEIENTMEDGVVDDNEPDEEANRA
notes: Rxt2, subunit of the S. cerevisiae Rpd3L complex; expressed from the tagged strain; not shown: TAP tag, C-terminal, kept
binding result [6]: binds | binding result [7]: binds
